In patent publication US20190153410A1 (NOVOZYMES A S, published 2019):

T1: propeptide of Rhizomucor miehei lipase (RmL propeptide)
T1 chain: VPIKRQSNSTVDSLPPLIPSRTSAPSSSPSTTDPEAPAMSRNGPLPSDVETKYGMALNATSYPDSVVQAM

T2: Rhizomucor miehei lipase (RmL) mature protein (Rhizomucor miehei, UniProt P19515 95-363)
T2 sequence: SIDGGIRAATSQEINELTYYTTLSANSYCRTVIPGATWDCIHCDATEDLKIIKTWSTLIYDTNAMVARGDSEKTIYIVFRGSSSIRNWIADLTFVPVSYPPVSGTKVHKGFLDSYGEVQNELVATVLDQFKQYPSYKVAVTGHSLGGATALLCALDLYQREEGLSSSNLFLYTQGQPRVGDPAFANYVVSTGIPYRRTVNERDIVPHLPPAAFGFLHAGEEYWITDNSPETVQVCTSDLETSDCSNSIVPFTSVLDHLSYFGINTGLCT

T3: Lipex (SEQ ID NO: 5) (Thermomyces lanuginosus (Thermophilic …, UniProt O59952 23-291))
T3 chain: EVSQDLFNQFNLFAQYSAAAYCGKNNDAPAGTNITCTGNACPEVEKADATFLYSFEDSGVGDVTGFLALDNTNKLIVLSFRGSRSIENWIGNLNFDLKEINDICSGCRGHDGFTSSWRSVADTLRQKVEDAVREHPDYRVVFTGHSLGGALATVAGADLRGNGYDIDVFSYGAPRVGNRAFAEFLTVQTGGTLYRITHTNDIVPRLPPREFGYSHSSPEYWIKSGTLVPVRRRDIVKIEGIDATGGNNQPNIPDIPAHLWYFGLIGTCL

T4: MuciLip2CN (SEQ ID NO: 6)
T4 chain: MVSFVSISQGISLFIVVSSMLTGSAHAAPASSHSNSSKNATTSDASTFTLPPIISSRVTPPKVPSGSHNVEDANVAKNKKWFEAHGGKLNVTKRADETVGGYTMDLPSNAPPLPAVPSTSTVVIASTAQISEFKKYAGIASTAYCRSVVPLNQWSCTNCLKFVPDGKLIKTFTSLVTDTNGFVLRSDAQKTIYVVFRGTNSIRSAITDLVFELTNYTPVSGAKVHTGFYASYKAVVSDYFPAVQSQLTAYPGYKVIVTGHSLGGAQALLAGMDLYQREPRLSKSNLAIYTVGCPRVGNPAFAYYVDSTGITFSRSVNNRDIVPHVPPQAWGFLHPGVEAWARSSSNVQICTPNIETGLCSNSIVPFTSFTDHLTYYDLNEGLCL

T5: RhimiLip1 (SEQ ID NO: 7)
T5 chain: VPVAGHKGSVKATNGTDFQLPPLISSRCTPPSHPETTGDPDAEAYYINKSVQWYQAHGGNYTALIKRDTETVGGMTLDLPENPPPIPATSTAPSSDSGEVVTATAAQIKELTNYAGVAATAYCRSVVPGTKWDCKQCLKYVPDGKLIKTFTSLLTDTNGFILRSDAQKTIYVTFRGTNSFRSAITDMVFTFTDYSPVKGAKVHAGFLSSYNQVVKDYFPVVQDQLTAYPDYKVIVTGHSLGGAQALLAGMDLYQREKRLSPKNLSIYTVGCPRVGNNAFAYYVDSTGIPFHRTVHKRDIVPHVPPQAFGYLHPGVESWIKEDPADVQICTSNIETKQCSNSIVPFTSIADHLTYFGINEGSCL


Assays:
[1] = target: T1, propeptide of Rhizomucor miehei lipase …
[2] = target: T2, Rhizomucor miehei lipase (RmL) mature …; test: cell-based or functional assay
Lipex (SEQ ID NO: 5) = target: T3, Lipex (SEQ ID NO: 5); test: cell-based or functional assay
[3] = target: T4, MuciLip2CN (SEQ ID NO: 6); test: cell-based or functional assay
RhimiLip1 (SEQ ID NO: 7) = target: T5, RhimiLip1 (SEQ ID NO: 7); test: cell-based or functional assay

Binder | hydrolytic activity on p-nitrophenyl acyl esters (C3, C6, C10, C12, C16), release of p-nitrophenol at 405 nm [1] | RP(wash) with inhibitor, AMSA, propeptide:lipase 320:1 (normalized to no inhibitor = 1.00) [2] | RP(wash) with inhibitor, AMSA, propeptide:lipase 320:1 (normalized to no inhibitor = 1.00) (Lipex (SEQ ID NO: 5)) | RP(wash) with inhibitor, AMSA, propeptide:lipase 320:1 (normalized to no inhibitor = 1.00) [3] | RP(wash) with inhibitor, AMSA, propeptide:lipase 320:1 (normalized to no inhibitor = 1.00) (RhimiLip1 (SEQ ID NO: 7))
Rhizomucor miehei lipase (RmL) mature protein (protein) SIDGGIRAATSQEINELTYYTTLSANSYCRTVIPGATWDCIHCDATEDLKIIKTWSTLIYDTNAMVARGDSEKTIYIVFRGSSSIRNWIADLTFVPVSYPPVSGTKVHKGFLDSYGEVQNELVATVLDQFKQYPSYKVAVTGHSLGGATALLCALDLYQREEGLSSSNLFLYTQGQPRVGDPAFANYVVSTGIPYRRTVNERDIVPHLPPAAFGFLHAGEEYWITDNSPETVQVCTSDLETSDCSNSIVPFTSVLDHLSYFGINTGLCT | RmL with the propeptide bound showed no activity at any of the conditions tested | – | – | – | –
propeptide of Rhizomucor miehei lipase (RmL propeptide) (peptide) peptide: VPIKRQSNSTVDSLPPLIPSRTSAPSSSPSTTDPEAPAMSRNGPLPSDVETKYGMALNATSYPDSVVQAM | – | 0.02 | 0.89 | 1.1 | 0.92
